Results taken from publication PMC9352680, “A comprehensive thermodynamic model for RNA binding by the Saccharomyces cerevisiae Pumilio protein PUF4”.
Changes are numbered by the printed parent chain. Numbers in names are those of the source.

Target: T1, PUF4 RNA-binding domain (Saccharomyces cerevisiae, UniProt P25339 537-888)
T1 sequence: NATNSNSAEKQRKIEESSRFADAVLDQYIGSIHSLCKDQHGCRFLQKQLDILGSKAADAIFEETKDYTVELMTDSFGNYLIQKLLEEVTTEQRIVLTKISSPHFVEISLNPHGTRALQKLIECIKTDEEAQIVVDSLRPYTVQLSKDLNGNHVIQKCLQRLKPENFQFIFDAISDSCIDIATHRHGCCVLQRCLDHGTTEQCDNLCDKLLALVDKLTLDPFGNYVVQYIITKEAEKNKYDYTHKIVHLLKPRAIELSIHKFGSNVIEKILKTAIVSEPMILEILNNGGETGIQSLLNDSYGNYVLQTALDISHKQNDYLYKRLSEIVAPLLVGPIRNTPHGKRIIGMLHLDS
Experiment: Mg; RNA-MaP; 20 mM Na-HEPES pH 7.4, 30 mM KOAc, 0.75 mM MgCl2, 0.1% Tween-20, 5% glycerol, 0.1 mg/mL BSA, 2 mM DTT; 25 C; 0.0125-409.6 nM protein
Settings: tags: N-His6-TEV cleaved; C-SNAP kept, Cy3B-labelled; label: tethered on chip by stalled RNA polymerase

B1: Ib_S2_P4E.1_K4.1_C4.1_H4.1_[T1A]_[G2A]_A4.1_F4.1_T4.1 (ssRNA)
RNA: UUUGAUUAAUAUGAUAUCGUUCUUUCUAAUAUAUUAUUCUUUCUCGAUAUCAUAUUAAUCUUU
With B1 as the binder, how does the Kd read?
The Kd was 616 nM.

B2: Ib_S2_P4E.1_K4.1_C4.1_H4.1_[T1G]_[T3C]_A4.1_F4.1_T4.1 (ssRNA)
RNA: B1 RNA with A28G, A29G, U30C
How did the Kd turn out when B2 was run?
Its Kd is 222 nM.

B3: Ib_S2_P4E.1_K4.1_C4.1_H4.1_[T1G]_[A4G]_A4.1_F4.1_T4.1 (ssRNA)
RNA: B1 RNA with A28G, A29G, A31G
B3 was tested. Which Kd did it give?
The Kd was 18.6 nM.

B4: Ib_S2_P4E.1_K4.1_C4.1_H4.1_[T1G]_[A4C]_A4.1_F4.1_T4.1 (ssRNA)
RNA: B1 RNA with A28G, A29G, A31C
For B4, which Kd is on record?
Its Kd is 1520 nM.

B5: Ib_S2_P4E.1_K4.1_C4.1_H4.1_[T1C]_[A4G]_A4.1_F4.1_T4.1 (ssRNA)
RNA: B1 RNA with A28C, A29G, A31G
B5 was tested. Which Kd did it give?
The Kd was 7.32 nM.

B6: Ib_S2_P4E.1_K4.1_C4.1_H4.1_[G2C]_[T3A]_A4.1_F4.1_T4.1 (ssRNA)
RNA: B1 RNA with A28U, A29C, U30A
For B6, which Kd is on record?
Its Kd is over 2300 nM.

B7: Ia_S2_P4E.1_K4.1_C4.1_H4.1_[G2C]_A4.1_F4.1_T4.1 (ssRNA)
RNA: B1 RNA with A28U, A29C
With B7 as the binder, how does the Kd read?
The Kd was 151 nM.

B8: Ib_S2_P4E.1_K4.1_C4.1_H4.1_[G2T]_[T3A]_A4.1_F4.1_T4.1 (ssRNA)
RNA: B1 RNA with A28U, A29U, U30A
How did the Kd turn out when B8 was run?
The Kd was 2120 nM.

B9: Ib_S2_P4E.1_K4.1_C4.1_H4.1_[G2A]_[T3C]_A4.1_F4.1_T4.1 (ssRNA)
RNA: B1 RNA with A28U, U30C
For B9, which Kd is on record?
The Kd was 1430 nM.

B10: Ib_S2_P4E.1_K4.1_C4.1_H4.1_[G2A]_[T3A]_A4.1_F4.1_T4.1 (ssRNA)
RNA: B1 RNA with A28U, U30A
B10 was tested. Which Kd did it give?
Its Kd is over 2300 nM.

B11: Ib_S2_P4E.1_K4.1_C4.1_H4.1_[G2T]_[A4C]_A4.1_F4.1_T4.1 (ssRNA)
RNA: B1 RNA with A28U, A29U, A31C
B11 was tested. Which Kd did it give?
Its Kd is over 2300 nM.

B12: Ib_S2_P4E.1_K4.1_C4.1_H4.1_[G2T]_[A4T]_A4.1_F4.1_T4.1 (ssRNA)
RNA: B1 RNA with A28U, A29U, A31U
B12 was tested. Which Kd did it give?
Its Kd is over 2300 nM.

B13: Ib_S2_P4E.1_K4.1_C4.1_H4.1_[G2A]_[A4G]_A4.1_F4.1_T4.1 (ssRNA)
RNA: B1 RNA with A28U, A31G
With B13 as the binder, how does the Kd read?
Its Kd is 13.3 nM.

B14: Ib_S2_P4E.1_K4.1_C4.1_H4.1_[G2A]_[A4C]_A4.1_F4.1_T4.1 (ssRNA)
RNA: B1 RNA with A28U, A31C
How did the Kd turn out when B14 was run?
The Kd was 1120 nM.

B15: Ib_S2_P4E.1_K4.1_C4.1_H4.1_[G2A]_[A4T]_A4.1_F4.1_T4.1 (ssRNA)
RNA: B1 RNA with A28U, A31U
With B15 as the binder, how does the Kd read?
The Kd was 852 nM.

B16: Ib_S2_P4E.1_K4.1_C4.1_H4.1_[T3C]_[A4C]_A4.1_F4.1_T4.1 (ssRNA)
RNA: B1 RNA with A28U, A29G, U30C, A31C
For B16, which Kd is on record?
The Kd was 1130 nM.

B17: Ib_S2_P4E.1_K4.1_C4.1_H4.1_[T3C]_[A4T]_A4.1_F4.1_T4.1 (ssRNA)
RNA: B1 RNA with A28U, A29G, U30C, A31U
For B17, which Kd is on record?
The Kd was 667 nM.

B18: Ia_S2_P4E.1_K4.1_C4.1_H4.1_[G2T]_A4.1_F4.1_T4.1 (ssRNA)
RNA: B1 RNA with A28U, A29U
How did the Kd turn out when B18 was run?
The Kd was 137 nM.

B19: Ib_S2_P4E.1_K4.1_C4.1_H4.1_[T1G]_A4.1_[T5C]_F4.1_T4.1 (ssRNA)
RNA: B1 RNA with A28G, A29G, U32C
With B19 as the binder, how does the Kd read?
The Kd was 21.1 nM.

B20: Ib_S2_P4E.1_K4.1_C4.1_H4.1_[T1A]_A4.1_[T5A]_F4.1_T4.1 (ssRNA)
RNA: B1 RNA with A29G, U32A
For B20, which Kd is on record?
Its Kd is 657 nM.

B21: Ib_S2_P4E.1_K4.1_C4.1_H4.1_[T1G]_A4.1_[A6T]_F4.1_T4.1 (ssRNA)
RNA: B1 RNA with A28G, A29G, A33U
B21 was tested. Which Kd did it give?
Its Kd is 497 nM.

B22: Ib_S2_P4E.1_K4.1_C4.1_H4.1_[T1C]_A4.1_[A6G]_F4.1_T4.1 (ssRNA)
RNA: B1 RNA with A28C, A29G, A33G
B22 was tested. Which Kd did it give?
Its Kd is 795 nM.

B23: Ib_S2_P4E.1_K4.1_C4.1_H4.1_[T1C]_A4.1_[A6T]_F4.1_T4.1 (ssRNA)
RNA: B1 RNA with A28C, A29G, A33U
B23 was tested. Which Kd did it give?
The Kd was 126 nM.

B24: Ib_S2_P4E.1_K4.1_C4.1_H4.1_[T1A]_A4.1_[A6T]_F4.1_T4.1 (ssRNA)
RNA: B1 RNA with A29G, A33U
B24 was tested. Which Kd did it give?
Its Kd is 739 nM.

B25: Ib_S2_P4E.1_K4.1_C4.1_H4.1_[T1G]_A4.1_[T7A]_F4.1_T4.1 (ssRNA)
RNA: B1 RNA with A28G, A29G, U34A
How did the Kd turn out when B25 was run?
Its Kd is 303 nM.

B26: Ib_S2_P4E.1_K4.1_C4.1_H4.1_[T1C]_A4.1_[T7G]_F4.1_T4.1 (ssRNA)
RNA: B1 RNA with A28C, A29G, U34G
With B26 as the binder, how does the Kd read?
The Kd was 132 nM.

B27: Ib_S2_P4E.1_K4.1_C4.1_H4.1_[T1A]_A4.1_[T7G]_F4.1_T4.1 (ssRNA)
RNA: B1 RNA with A29G, U34G
How did the Kd turn out when B27 was run?
Its Kd is 550 nM.

B28: Ib_S2_P4E.1_K4.1_C4.1_H4.1_[G2T]_A4.1_[T5A]_F4.1_T4.1 (ssRNA)
RNA: B1 RNA with A28U, A29U, U32A
Which Kd does the source give for B28 here?
Its Kd is 1900 nM.

B29: Ia_S2_P4E.1_K4.1_C4.1_H4.1_[A4C]_A4.1_F4.1_T4.1 (ssRNA)
RNA: B1 RNA with A28U, A29G, A31C
For B29, which Kd is on record?
The Kd was 4.11 nM.
